# Results as given in IntAct's records for PubMed 35512704.
# B1: Speckle-type POZ protein (Homo sapiens), O43791 (parent)
# chain: MSRVPSPPPPAEMSSGPVAESWCYTQIKVVKFSYMWTINNFSFCREEMGEVIKSSTFSSGANDKLKWCLRVNPKGLDEESKDYLSLYLLLVSCPKSEVRAKFKFSILNAKGEETKAMESQRAYRFVQGKDWGFKKFIRRDFLLDEANGLLPDDKLTLFCEVSVVQDSVNISGQNTMNMVKVPECRLADELGGLWENSRFTDCCLCVAGQEFQAHKAILAARSPVFSAMFEHEMEESKKNRVEINDVEPEVFKEMMCFIYTGKAPNLDKMADDLLAAADKYALERLKVMCEDALCSNLSVENAAEILILADLHSADQLKTQAVDFINYHASDVLETSGWKSMVVSHPHLVAEAYRSLASAQCPFLGPPRKRLKQS
# Variants of: B1
# Conditions: with tfe2_human TCF3, P15923
# Sequence of tfe2_human TCF3, P15923 (P15923 whole entry): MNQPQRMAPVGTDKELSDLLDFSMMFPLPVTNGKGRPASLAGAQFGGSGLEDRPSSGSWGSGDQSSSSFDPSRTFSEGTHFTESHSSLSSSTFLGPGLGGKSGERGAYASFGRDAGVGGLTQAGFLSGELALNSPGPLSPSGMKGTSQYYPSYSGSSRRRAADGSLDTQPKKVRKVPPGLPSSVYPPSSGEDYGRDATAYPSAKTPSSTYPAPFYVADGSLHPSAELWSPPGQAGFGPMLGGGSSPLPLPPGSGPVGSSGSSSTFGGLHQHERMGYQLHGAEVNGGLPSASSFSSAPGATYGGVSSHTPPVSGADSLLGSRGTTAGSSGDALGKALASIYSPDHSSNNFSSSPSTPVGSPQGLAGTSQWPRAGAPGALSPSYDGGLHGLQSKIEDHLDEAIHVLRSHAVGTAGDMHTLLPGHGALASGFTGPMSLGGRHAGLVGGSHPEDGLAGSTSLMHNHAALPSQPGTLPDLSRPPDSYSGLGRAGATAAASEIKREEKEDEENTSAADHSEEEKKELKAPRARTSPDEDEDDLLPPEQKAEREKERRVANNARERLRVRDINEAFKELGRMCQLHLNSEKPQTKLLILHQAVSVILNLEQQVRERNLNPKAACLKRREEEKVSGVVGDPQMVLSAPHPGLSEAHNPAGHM
row,effect of a mutation on the interaction,Variant
1,with no effect,F102C

# Variants of: B1
# Conditions: with tead1_human TEAD1, P28347
# Sequence of tead1_human TEAD1, P28347 (P28347 whole entry): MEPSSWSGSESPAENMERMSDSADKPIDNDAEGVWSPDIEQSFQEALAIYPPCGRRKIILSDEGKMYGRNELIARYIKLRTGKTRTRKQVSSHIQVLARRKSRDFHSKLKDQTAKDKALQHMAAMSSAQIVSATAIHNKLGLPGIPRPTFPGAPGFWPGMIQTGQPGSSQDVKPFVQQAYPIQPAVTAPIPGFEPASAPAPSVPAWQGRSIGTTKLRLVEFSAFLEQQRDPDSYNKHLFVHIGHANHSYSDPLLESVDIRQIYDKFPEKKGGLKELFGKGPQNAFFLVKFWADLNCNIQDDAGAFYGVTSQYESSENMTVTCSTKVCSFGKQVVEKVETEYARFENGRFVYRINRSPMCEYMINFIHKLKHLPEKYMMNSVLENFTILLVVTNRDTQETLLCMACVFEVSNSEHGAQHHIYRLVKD
row,effect of a mutation on the interaction,Variant
1,with no effect,F102C

# Variants of: B1
# Conditions: with tead3_human TEAD3, Q99594
# Sequence of tead3_human TEAD3, Q99594 (Q99594 whole entry): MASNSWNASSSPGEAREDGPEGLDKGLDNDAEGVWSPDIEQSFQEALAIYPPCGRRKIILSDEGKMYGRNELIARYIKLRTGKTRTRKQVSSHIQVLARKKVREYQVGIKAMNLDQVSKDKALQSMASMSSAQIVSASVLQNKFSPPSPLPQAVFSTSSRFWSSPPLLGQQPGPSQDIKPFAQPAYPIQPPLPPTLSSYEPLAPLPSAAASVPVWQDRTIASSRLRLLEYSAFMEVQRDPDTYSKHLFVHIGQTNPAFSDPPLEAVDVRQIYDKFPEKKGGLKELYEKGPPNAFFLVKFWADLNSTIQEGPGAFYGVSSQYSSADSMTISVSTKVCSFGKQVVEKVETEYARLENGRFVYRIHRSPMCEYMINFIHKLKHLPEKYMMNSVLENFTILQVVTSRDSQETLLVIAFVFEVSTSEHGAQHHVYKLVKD
row,effect of a mutation on the interaction,Variant
1,with no effect,F102C

# Variants of: B1
# Conditions: with tead4_human TEAD4, Q15561
# Sequence of tead4_human TEAD4, Q15561 (Q15561 whole entry): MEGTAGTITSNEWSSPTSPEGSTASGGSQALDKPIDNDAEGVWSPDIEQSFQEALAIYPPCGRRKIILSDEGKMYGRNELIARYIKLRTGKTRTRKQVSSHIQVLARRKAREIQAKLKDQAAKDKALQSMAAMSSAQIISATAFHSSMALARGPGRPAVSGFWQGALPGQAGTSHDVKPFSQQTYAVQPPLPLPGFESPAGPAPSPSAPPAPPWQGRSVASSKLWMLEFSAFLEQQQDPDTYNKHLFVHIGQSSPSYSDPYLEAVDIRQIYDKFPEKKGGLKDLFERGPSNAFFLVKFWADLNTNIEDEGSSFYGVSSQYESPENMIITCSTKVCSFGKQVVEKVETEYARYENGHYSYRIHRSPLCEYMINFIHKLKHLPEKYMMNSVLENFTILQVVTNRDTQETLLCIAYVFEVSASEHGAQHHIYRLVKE
row,effect of a mutation on the interaction,Variant
1,with no effect,F102C

# Variants of: B1
# Conditions: with tgfr2_human TGFBR2, P37173
row,effect of a mutation on the interaction,Variant
1,with no effect,F102C

# Variants of: B1
# Conditions: with tnr14_human TNFRSF14, Q92956
# Sequence of tnr14_human TNFRSF14, Q92956 (Q92956 whole entry): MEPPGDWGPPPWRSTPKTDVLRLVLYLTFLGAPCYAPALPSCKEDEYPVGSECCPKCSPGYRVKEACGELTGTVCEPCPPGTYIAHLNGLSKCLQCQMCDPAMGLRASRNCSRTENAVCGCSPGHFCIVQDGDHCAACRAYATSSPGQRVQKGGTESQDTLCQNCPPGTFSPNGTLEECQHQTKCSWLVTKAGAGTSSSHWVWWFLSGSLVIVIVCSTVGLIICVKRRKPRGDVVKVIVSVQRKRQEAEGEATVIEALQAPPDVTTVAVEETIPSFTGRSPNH
row,effect of a mutation on the interaction,Variant
1,with no effect,F102C

# Variants of: B1
# Conditions: with tsc2_human TSC2, P49815
row,effect of a mutation on the interaction,Variant
1,with no effect,F102C

# Variants of: B1
# Conditions: with tshr_human TSHR
row,effect of a mutation on the interaction,Variant
1,with no effect,F102C

# Variants of: B1
# Conditions: with vegfa_human VEGFA
row,effect of a mutation on the interaction,Variant
1,with no effect,F102C

# Variants of: B1
# Conditions: with vhl_human VHL
row,effect of a mutation on the interaction,Variant
1,with no effect,F102C

# Variants of: B1
# Conditions: with wee1_human WEE1, P30291
# Sequence of wee1_human WEE1, P30291 (P30291 whole entry, looked up): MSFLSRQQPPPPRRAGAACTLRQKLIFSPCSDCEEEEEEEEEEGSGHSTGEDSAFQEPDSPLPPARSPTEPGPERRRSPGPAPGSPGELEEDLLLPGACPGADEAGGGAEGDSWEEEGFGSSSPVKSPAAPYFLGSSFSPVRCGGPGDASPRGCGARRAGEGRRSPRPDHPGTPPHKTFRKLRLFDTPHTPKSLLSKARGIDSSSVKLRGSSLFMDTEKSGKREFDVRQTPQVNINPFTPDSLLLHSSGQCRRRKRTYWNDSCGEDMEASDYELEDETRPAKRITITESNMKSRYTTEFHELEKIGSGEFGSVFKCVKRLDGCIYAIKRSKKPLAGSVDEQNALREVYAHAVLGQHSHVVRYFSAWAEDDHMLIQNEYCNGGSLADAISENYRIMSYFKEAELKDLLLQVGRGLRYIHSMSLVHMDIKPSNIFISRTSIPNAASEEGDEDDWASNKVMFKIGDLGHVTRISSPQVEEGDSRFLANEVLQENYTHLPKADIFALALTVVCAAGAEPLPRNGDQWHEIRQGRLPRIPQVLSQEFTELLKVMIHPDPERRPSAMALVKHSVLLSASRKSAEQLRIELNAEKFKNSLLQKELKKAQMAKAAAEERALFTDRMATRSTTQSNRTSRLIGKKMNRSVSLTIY
row,effect of a mutation on the interaction,Variant
1,with no effect,F102C

# Variants of: B1
# Conditions: with wwtr1_human WWTR1, Q9GZV5
# Sequence of wwtr1_human WWTR1, Q9GZV5 (Q9GZV5 whole entry): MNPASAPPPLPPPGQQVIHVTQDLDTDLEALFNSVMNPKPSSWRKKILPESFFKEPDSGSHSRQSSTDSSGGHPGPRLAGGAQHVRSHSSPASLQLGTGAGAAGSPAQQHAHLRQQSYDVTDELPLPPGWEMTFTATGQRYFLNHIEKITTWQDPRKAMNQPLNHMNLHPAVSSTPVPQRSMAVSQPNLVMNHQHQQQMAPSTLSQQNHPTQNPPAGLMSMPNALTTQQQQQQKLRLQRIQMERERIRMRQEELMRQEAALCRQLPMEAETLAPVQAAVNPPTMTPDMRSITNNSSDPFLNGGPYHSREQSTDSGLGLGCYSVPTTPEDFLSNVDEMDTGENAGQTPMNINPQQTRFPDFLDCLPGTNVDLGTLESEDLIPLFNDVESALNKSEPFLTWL
row,effect of a mutation on the interaction,Variant
1,with no effect,F102C

# Variants of: B1
# Conditions: with xpo1_human XPO1, O14980
# Sequence of xpo1_human XPO1, O14980 (O14980 whole entry): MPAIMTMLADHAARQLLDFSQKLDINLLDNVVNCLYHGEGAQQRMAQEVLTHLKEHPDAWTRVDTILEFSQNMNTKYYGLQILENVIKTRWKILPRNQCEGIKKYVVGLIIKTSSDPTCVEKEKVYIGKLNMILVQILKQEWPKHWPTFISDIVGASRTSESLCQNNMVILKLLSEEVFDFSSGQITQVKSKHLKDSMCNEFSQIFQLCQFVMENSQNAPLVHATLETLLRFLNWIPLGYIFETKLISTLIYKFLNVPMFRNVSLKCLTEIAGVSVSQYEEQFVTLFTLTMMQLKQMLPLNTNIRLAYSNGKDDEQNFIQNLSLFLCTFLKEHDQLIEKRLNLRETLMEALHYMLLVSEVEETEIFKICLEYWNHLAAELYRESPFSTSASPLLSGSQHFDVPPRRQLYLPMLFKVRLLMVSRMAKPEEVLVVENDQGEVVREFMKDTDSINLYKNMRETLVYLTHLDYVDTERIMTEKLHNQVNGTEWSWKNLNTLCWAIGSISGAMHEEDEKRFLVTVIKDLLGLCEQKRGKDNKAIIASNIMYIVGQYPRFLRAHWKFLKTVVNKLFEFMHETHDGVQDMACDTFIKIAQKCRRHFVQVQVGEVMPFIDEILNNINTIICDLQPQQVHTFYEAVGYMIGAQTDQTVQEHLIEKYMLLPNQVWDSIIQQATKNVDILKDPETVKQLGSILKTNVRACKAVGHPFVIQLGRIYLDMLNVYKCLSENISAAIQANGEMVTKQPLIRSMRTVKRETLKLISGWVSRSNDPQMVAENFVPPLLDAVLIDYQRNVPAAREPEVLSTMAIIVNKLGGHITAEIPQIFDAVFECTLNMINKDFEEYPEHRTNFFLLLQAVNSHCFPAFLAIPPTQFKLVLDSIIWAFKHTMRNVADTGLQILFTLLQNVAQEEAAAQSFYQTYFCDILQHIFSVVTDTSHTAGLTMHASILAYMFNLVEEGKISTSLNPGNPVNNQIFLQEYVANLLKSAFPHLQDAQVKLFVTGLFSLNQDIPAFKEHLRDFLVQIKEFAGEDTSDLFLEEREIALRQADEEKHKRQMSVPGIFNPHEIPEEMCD
row,effect of a mutation on the interaction,Variant
1,with no effect,F102C

# Variants of: B1
# Conditions: with igf1r_human IGF1R
row,effect of a mutation on the interaction,Variant
1,causing an interaction,F102C

# Variants of: B1
# Conditions: with etv1_human ETV1, P50549
# Sequence of etv1_human ETV1, P50549 (P50549 whole entry): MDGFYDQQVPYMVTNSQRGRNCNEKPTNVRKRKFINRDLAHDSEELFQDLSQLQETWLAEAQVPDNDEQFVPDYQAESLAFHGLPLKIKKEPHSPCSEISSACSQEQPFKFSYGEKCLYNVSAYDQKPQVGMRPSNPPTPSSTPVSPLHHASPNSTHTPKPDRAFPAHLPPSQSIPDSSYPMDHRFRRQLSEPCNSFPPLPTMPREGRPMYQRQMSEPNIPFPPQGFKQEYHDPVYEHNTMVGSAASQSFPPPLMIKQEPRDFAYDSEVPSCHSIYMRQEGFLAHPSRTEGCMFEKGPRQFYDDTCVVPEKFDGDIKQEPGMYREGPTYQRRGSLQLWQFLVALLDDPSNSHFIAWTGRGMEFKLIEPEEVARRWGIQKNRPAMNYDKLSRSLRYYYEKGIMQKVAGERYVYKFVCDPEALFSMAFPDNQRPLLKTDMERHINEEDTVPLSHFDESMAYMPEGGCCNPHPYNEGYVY
row,effect of a mutation on the interaction,Variant
1,disrupting interaction strength,F102C

# Variants of: B1
# Conditions: with pk3ca_human PIK3CA
row,effect of a mutation on the interaction,Variant
1,increasing interaction strength,F102C
